These results are taken from patent US20170157245A1, “TREATMENT OF GASTRIC CANCER” (OncoMed Pharmaceutlcals, Inc., priority 2014, published 2017).

In one assay the test system is xenograft tumor models. To be noted: Hoey et al., 2009, U.S. Pat. No. 7,750,124; cited from earlier work.
The test system of assay [1] is OMP-STM1 gastric tumor xenografts. The experiment in a line: Inhibition of OMP-STM1 gastric tumor growth in vivo. To be noted: subcutaneous xenograft in NOD/SCID mice, 3 mg/kg weekly intraperitoneally for 4 weeks, given plus anti-mVEGF/anti-mDLL4 bispecific antibody, compared with control, anti-DLL4 and anti-VEGF antibodies. As to the method:
FIG. 1. […] OMP-STM1 gastric tumor cells were injected subcutaneously into NOD/SCID mice. Mice were treated with control antibody (-[…]-), anti-hDLL4 antibody 21M18 (demcizumab) plus anti-mDLL4 antibody (-▪-), anti-VEGF antibody bevacizumab plus anti-mVEGF antibody (-⋄-), or anti-VEGF/anti-DLL4 bispecific antibody 219R45-MB-21M83 (305B83) plus anti-mDLL4/anti-mVEGF antibody (-▾-). Data is shown as tumor volume […] over days post-treatment. Antibodies were administered intraperitoneally at a dose of 3 mg/kg once a week. * indicates p<0.05 vs control antibody as assessed by two-way ANOVA.
Single cell suspensions of OMP-STM1 gastric tumor xenografts (50,000 cells) were injected subcutaneously into the flanks of 6-8 week old NOD/SCID mice. Tumors were allowed to grow for 34 days until they reached an average volume of 110 mm^3. The mice were randomized (n=8 per group) and treated with anti-hDLL4 antibody 21M18 (demcizumab) plus anti-mDLL4, anti-hVEGF antibody bevacizumab plus anti-mVEGF, anti-hVEGF/anti-hDLL4 bispecific antibody 219R45-MB-21R83 (305B83) plus an anti-mVEGF/anti-mDLL4 bispecific antibody, or control antibody. Antibodies were dosed at 3 mg/kg weekly by intraperitoneal injection for 4 weeks. Tumor growth was monitored and tumor volumes were measured with electronic calipers at the indicated time points. Data are expressed as mean±S.E.M.

Residue numbers refer to the chain shown, from its start.

B1: demcizumab: anti-DLL4 antibody, demcizumab (also known as OMP-21M18); heavy chain variable region SEQ ID NO:9 (antibody, chains of the INN, looked up, V domains shown)
VH: QVQLVQSGAEVKKPGASVKISCKASGYSFTAYYIHWVKQAPGQGLEWIGYISSYNGATNYNQKFKGRVTFTTDTSTSTAYMELRSLRSDDTAVYYCARDYDYDVGMDYWGQGTLVTVSS
VL: DIVMTQSPDSLAVSLGERATISCRASESVDNYGISFMKWFQQKPGQPPKLLIYAASNQGSGVPDRFSGSGSGTDFTLTISSLQAEDVAVYYCQQSKEVPWTFGGGTKVEIK
Turning to B1, in the assay on xenograft tumor models, the “frequency of cancer stem cells” value is “reduce the frequency of cancer stem cells” and the tumor growth inhibition result was “inhibit tumor growth”.

B2: 219R45-MB-21R83: anti-hVEGF/anti-hDLL4 bispecific antibody; heavy chains SEQ ID NO:7 and SEQ ID NO:62, two light chains SEQ ID NO:8 (antibody, chains of the INN, looked up, V domains shown)
VH: B1 VH with S53N, G56R
VL: B1 VL
VH2: QVQLVQSGAEVKKPGASVKVSCKASGYTFTNYWMHWVRQAPGQGLEWMGDINPSNGRTSYKEKFKRRVTLSVDKSSSTAYMELSSLRSEDTAVYFCTIHYDDKYYPLMDYWGQGTLVTVSS
VL2: B1 VL
Consider B2, for which the “inhibition of OMP-STM1 gastric tumor growth (tumor volume)” value in assay [1] (listed as 219R45-MB-21M83, 3 mg/kg) was “Inhibition of gastric tumor growth in vivo”; in assay [1] (listed as bispecific anti-VEGF/anti-DLL4 antibody, 3 mg/kg), “greater inhibition of OMP-STM1 gastric tumor growth than either anti-DLL4 antibodies alone or anti-VEGF antibodies alone”.
